Consider one molecule from article PMC6249866 (Molecular Biology of the Cell, 2018).

The target of the experiment is T1, Asl-A-His6 (WT; Asterless amino acids 1-374) (Drosophila, UniProt Q9VNE4 1-374).
T1 sequence (looked up): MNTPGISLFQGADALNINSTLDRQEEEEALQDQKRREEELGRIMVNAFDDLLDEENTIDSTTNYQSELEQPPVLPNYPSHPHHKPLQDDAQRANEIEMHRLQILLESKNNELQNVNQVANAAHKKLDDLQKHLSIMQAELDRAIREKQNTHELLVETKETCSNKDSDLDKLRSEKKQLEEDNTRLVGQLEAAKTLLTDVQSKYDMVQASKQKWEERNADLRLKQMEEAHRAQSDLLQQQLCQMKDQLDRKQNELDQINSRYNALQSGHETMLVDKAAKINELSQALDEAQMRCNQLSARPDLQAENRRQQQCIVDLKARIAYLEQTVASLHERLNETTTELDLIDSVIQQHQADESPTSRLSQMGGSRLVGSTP
Briefly: pull-down.

B1: GST-PB1-PB2 (Plk4 amino acids 382-602) (domain or fragment, Drosophila, UniProt O97143 382-602, looked up)
chain: DRISVPPLNTKRLLPTRYKTKNAIMSILRNGEVVLEFLKFRPTYNEDRINDICRISDDGQRIIIYQPDPGRGLPVREQPPDLQIPSGDCVYNYDNLPSKHWKKYIYGARFVGLVKSKTPKVTYFSTLGKCQLMETMTDFEIRFYSGAKLLKTPSEGLKVYDRNGMLLSDYSCSESRSLIEHGNECFTHCVNISNALEVAQTKDNSCFPVTIGRRPITDVQP
Regarding B1, the binding result is “binds”.
